Experimental data reported in article PMC3087488 (Journal of Oncology, 2011).
“And” between values parts separate entries of the source, which are not always exact repeats. Equal values may be shown once.

Columns and labels:
[1] = plasma gemcitabine concentration in patients; type: in vivo, human; conditions: completion of infusion, gemcitabine 1250 mg/m^2
Procedure: Plasma motesanib and gemcitabine concentrations were analyzed using a validated liquid chromatography/tandem mass spectrometry (LC-MS/MS) method, respectively. […] All pharmacokinetic parameter estimates were calculated using standard noncompartmental methods and WinNonlin Professional software on […] (Version 5.1.1, Pharsight Corporation, Mountain View, Calif, USA).

[2] = bevacizumab 15-mg/kg cohort plus carboplatin/paclitaxel; locally advanced or metastatic NSCLC; grade 3/4, n = 5; cited from earlier work
[3] = adverse events in patients (CTCAE version 3.0); type: in vivo, human
Procedure: Adverse events were recorded throughout the study and graded (including DLTs) according to the Common Terminology Criteria for Adverse Events, version 3.0. Samples for assessment of hematology, blood chemistry, urinalysis, and thyroid function were collected on day 1 of each cycle.

[4] = serum panitumumab concentration in patients; type: in vivo, human; conditions: panitumumab 9 mg/kg
[5] = 8 patients who received panitumumab and gemcitabine/cisplatin only
[6] = all 41 patients (7%), only in patients who also received motesanib

Question: For `Nc1ccn([C@@H]2O[C@H](CO)[C@@H](O)C2(F)F)c(=O)n1` [gemcitabine], which “Plasma gemcitabine concentration (cycle 1), mean (SD)” value ([1]; No motesanib (0 mg QD), n 8) is on record?
Answer: The value was 11000 ng/mL and 11000 (4220) ng/mL.

Question: And the “Plasma gemcitabine concentration (cycle 1), mean (SD)” value ([1]; with motesanib 50 mg QD, n 8)?
Answer: Its value is 8450 (7310) ng/mL.

Question: And the “Plasma gemcitabine concentration (cycle 1), mean” value ([1]; with motesanib 75 mg BID, n 2)?
Answer: Its value is 8290 (NR) ng/mL.

Question: And the “Plasma gemcitabine concentration (cycle 1), mean (SD)” value ([1]; with motesanib 75 mg QD, n 6)?
Answer: The value was 14400 (6020) ng/mL.

Question: What about the “Plasma gemcitabine concentration (cycle 1), mean (SD)” value ([1]; with motesanib 100 mg QD, n 6) of the same compound?
Answer: Its value is 6160 (3690) ng/mL.

Question: What about the “Plasma gemcitabine concentration (cycle 1), mean (SD)” value ([1]; with motesanib 125 mg QD, n 11) of the same compound?
Answer: Its value is 16100 ng/mL and 16100 (6800) ng/mL.

Question: With bevacizumab as the compound, how does the “patient incidence rate of thrombotic events” value [2] read?
Answer: Its value is 17.6%.

Question: For panitumumab, which panitumumab-related dermatitis acneiform [3, 5] is on record?
Answer: Its panitumumab-related dermatitis acneiform is 5 patients.

Question: And the panitumumab-related erythema [3, 5]?
Answer: Its panitumumab-related erythema is 5 patients.

Question: And the panitumumab-related nausea [3, 5]?
Answer: The panitumumab-related nausea was 6 patients.

Question: What about the panitumumab-related pruritus [3, 5] of the same compound?
Answer: The panitumumab-related pruritus was 5 patients.

Question: What about the panitumumab-related rash [3, 5] of the same compound?
Answer: Its panitumumab-related rash is 6 patients.

Question: What about the panitumumab-related anemia ([3]; all 41 patients) of the same compound?
Answer: Its panitumumab-related anemia is 7 patients.

Question: And the panitumumab-related anorexia ([3]; all 41 patients)?
Answer: The panitumumab-related anorexia was 11 patients.

Question: And the panitumumab-related diarrhea ([3]; all 41 patients)?
Answer: Its panitumumab-related diarrhea is 16 patients.

Question: And the panitumumab-related dry skin ([3]; all 41 patients)?
Answer: Its panitumumab-related dry skin is 7 patients.

Question: And the panitumumab-related fatigue ([3]; all 41 patients)?
Answer: The panitumumab-related fatigue was 19 patients.

Question: And the panitumumab-related hypomagnesemia ([3]; all 41 patients)?
Answer: Its panitumumab-related hypomagnesemia is 17 patients.

Question: And the panitumumab-related nausea ([3]; all 41 patients)?
Answer: Its panitumumab-related nausea is 21 patients.

Question: What about the panitumumab-related pruritus ([3]; all 41 patients) of the same compound?
Answer: Its panitumumab-related pruritus is 18 patients.

Question: And the panitumumab-related rash ([3]; all 41 patients)?
Answer: Its panitumumab-related rash is 22 patients.

Question: And the panitumumab-related vomiting ([3]; all 41 patients)?
Answer: Its panitumumab-related vomiting is 12 patients.

Question: And the serious panitumumab-related diarrhea ([3]; all 41 patients (5%))?
Answer: Its serious panitumumab-related diarrhea is 2 patients.

Question: What about the serious panitumumab-related dehydration ([3]; all 41 patients (7%)) of the same compound?
Answer: The serious panitumumab-related dehydration was 3 patients.

Question: And the “serious panitumumab-related deep vein thrombosis” value [3, 6]?
Answer: The value was 3 patients.

Question: And the “serious panitumumab-related pulmonary embolism” value [3, 6]?
Answer: Its value is 3 patients.

Question: And the “patients with serious panitumumab-related events” value ([3]; all 41 patients, eleven patients)?
Answer: Its value is 27%.

Question: And the “patients who discontinued panitumumab because of adverse events” value ([3]; all cohorts)?
Answer: The value was 11 patients.

Question: And the “Serum panitumumab, Cycle 4 postdose mean concentration (SD)” value ([4]; No motesanib (0 mg QD), n 3)?
Answer: The value was 275 (118) μg/mL.

Question: And the “Serum panitumumab, Cycle 4 predose mean concentration (SD)” value ([4]; No motesanib (0 mg QD), n 4)?
Answer: The value was 56.5 (39.6) μg/mL.

Question: And the “Serum panitumumab, Cycle 2 postdose mean concentration (SD)” value ([4]; No motesanib (0 mg QD), n 6)?
Answer: Its value is 186 (62.9) μg/mL.

Question: What about the “Serum panitumumab, Cycle 2 predose mean concentration (SD)” value ([4]; No motesanib (0 mg QD), n 6) of the same compound?
Answer: Its value is 11.2 (15.5) μg/mL.

Question: What about the “Serum panitumumab, Cycle 1 postdose mean concentration (SD)” value ([4]; No motesanib (0 mg QD), n 8) of the same compound?
Answer: The value was 206 (76.4) μg/mL.

Question: And the “Serum panitumumab, Cycle 4 postdose mean concentration (SD)” value ([4]; with motesanib 50 mg QD, n 3)?
Answer: The value was 232 (52.8) μg/mL.

Question: And the “Serum panitumumab, Cycle 4 predose mean concentration (SD)” value ([4]; with motesanib 50 mg QD, n 3)?
Answer: The value was 10.5 (6.4) μg/mL.

Question: What about the “Serum panitumumab, Cycle 2 postdose mean concentration (SD)” value ([4]; with motesanib 50 mg QD, n 5) of the same compound?
Answer: Its value is 193 (37.5) μg/mL.

Question: And the “Serum panitumumab, Cycle 1 postdose mean concentration (SD)” value ([4]; with motesanib 50 mg QD, n 7)?
Answer: Its value is 174 (24.9) μg/mL.

Question: And the “Serum panitumumab, Cycle 2 predose mean concentration (SD)” value ([4]; with motesanib 50 mg QD, n 7)?
Answer: The value was 9.0 (5.8) μg/mL.

Question: And the “Serum panitumumab, Cycle 2 postdose mean concentration” value ([4]; with motesanib 75 mg BID, n 1)?
Answer: The value was 217 (NR) μg/mL.

Question: And the “Serum panitumumab, Cycle 2 predose mean concentration” value ([4]; with motesanib 75 mg BID, n 1)?
Answer: The value was 11.2 (NR) μg/mL.

Question: What about the “Serum panitumumab, Cycle 1 postdose mean concentration” value ([4]; with motesanib 75 mg BID, n 2) of the same compound?
Answer: The value was 189 (NR) μg/mL.

Question: And the “Serum panitumumab, Cycle 4 predose mean concentration (SD)” value ([4]; with motesanib 75 mg QD, n 5)?
Answer: Its value is 32.5 (21.3) μg/mL.

Question: What about the “Serum panitumumab, Cycle 1 postdose mean concentration (SD)” value ([4]; with motesanib 75 mg QD, n 6) of the same compound?
Answer: Its value is 158 (24.2) μg/mL.

Question: And the “Serum panitumumab, Cycle 2 postdose mean concentration (SD)” value ([4]; with motesanib 75 mg QD, n 6)?
Answer: The value was 194 (21.5) μg/mL.

Question: And the “Serum panitumumab, Cycle 2 predose mean concentration (SD)” value ([4]; with motesanib 75 mg QD, n 6)?
Answer: Its value is 13.1 (13.5) μg/mL.

Question: What about the “Serum panitumumab, Cycle 4 postdose mean concentration (SD)” value ([4]; with motesanib 75 mg QD, n 6) of the same compound?
Answer: Its value is 218 (26.1) μg/mL.

Question: And the “Serum panitumumab, Cycle 4 postdose mean concentration” value ([4]; with motesanib 100 mg QD, n 2)?
Answer: Its value is 290 (NR) μg/mL.

Question: What about the “Serum panitumumab, Cycle 2 postdose mean concentration (SD)” value ([4]; with motesanib 100 mg QD, n 4) of the same compound?
Answer: Its value is 224 (51.8) μg/mL.

Question: What about the “Serum panitumumab, Cycle 4 predose mean concentration (SD)” value ([4]; with motesanib 100 mg QD, n 4) of the same compound?
Answer: The value was 41.6 (16.5) μg/mL.

Question: What about the “Serum panitumumab, Cycle 1 postdose mean concentration (SD)” value ([4]; with motesanib 100 mg QD, n 5) of the same compound?
Answer: Its value is 194 (27.1) μg/mL.

Question: And the “Serum panitumumab, Cycle 2 predose mean concentration (SD)” value ([4]; with motesanib 100 mg QD, n 5)?
Answer: Its value is 18.9 (10.7) μg/mL.

Question: And the “Serum panitumumab, Cycle 4 postdose mean concentration (SD)” value ([4]; with motesanib 125 mg QD, n 3)?
Answer: Its value is 170 (55.0) μg/mL.

Question: What about the “Serum panitumumab, Cycle 4 predose mean concentration (SD)” value ([4]; with motesanib 125 mg QD, n 3) of the same compound?
Answer: Its value is 21.7 (22.0) μg/mL.

Question: What about the “Serum panitumumab, Cycle 2 postdose mean concentration (SD)” value ([4]; with motesanib 125 mg QD, n 6) of the same compound?
Answer: Its value is 213 (39.0) μg/mL.

Question: And the “Serum panitumumab, Cycle 2 predose mean concentration (SD)” value ([4]; with motesanib 125 mg QD, n 6)?
Answer: The value was 13.4 (14.2) μg/mL.

Question: What about the “Serum panitumumab, Cycle 1 postdose mean concentration (SD)” value ([4]; with motesanib 125 mg QD, n 11) of the same compound?
Answer: The value was 203 (82.9) μg/mL.
